Test results: the supplement of paper PMC10899765

Tests used:
Details in all cases: 20 nM; 72 h
MCF10A [1] = test: 5+ nucleoli phenotype percent effect (relative to siNT 0% and siKIF11 100%); higher = more cells with five or more nucleoli
Procedure: (§1)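 After 72 h, cells were fixed and stained with Hoechst and anti-fibrillarin, and nucleoli per nucleus were counted with CellProfiler. Values are plate-adjusted percent effect for the one-nucleolus and 5+ nucleoli phenotypes, normalised to siNT (0%) and to the positive controls siNOL11 or siKIF11 (100%), as the mean of biological triplicates. Percent viability is the nuclei count relative to siNT.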

MCF10A [2] = test: percent viability (nuclei count relative to siNT); higher = more viable cells
Procedure: as §1

MCF10A [3] = test: one-nucleolus phenotype percent effect (relative to siNT 0% and siNOL11 100%); higher = more cells with one nucleolus (ribosome biogenesis inhibition)
Procedure: as §1

| Sequence | 5+ nucleoli phenotype percent effect (MCF10A [1]) [%] | percent viability (MCF10A [2]) [%] | one-nucleolus phenotype percent effect (MCF10A [3]) [%] |
| --- | --- | --- | --- |
| AAAGUGCUUCUCUUUGGUGGGU [hsa-miR-520d-3p] | 58.4 | 74.3 | -16.1 |
| AAAGUUCUGAGACACUCCGACU [hsa-miR-148a-5p] | 9.44 | 89 | -5.53 |
| AAAUAUAUAUAUAUAUGUACGUAU [hsa-miR-1277-5p] | 64.2 | 47.1 | -29.6 |
| AAAUAUGAUGAAACUCACAGCUGAG [hsa-miR-4517] | 12.3 | 24 | 0.779 |
| AAAUCUCUGCAGGCAAAUGUGA [hsa-miR-216b] | 44.2 | 97.3 | -16.2 |
| AAAUGGGUGGUCUGAGGCAA [hsa-miR-4506] | -7.36 | 46.9 | 36.1 |
| AAAUGUCACCUUUUUGAGAGGA [hsa-miR-513b-3p] | -25.5 | 94.2 | -7.38 |
| AAAUUAUUGUACAUCGGAUGAG [hsa-miR-944] | -36.2 | 33.3 | 9.85 |
| AAAUUCAUGUUCAAUCUAAACC [hsa-miR-4760-3p] | 10 | 68.6 | -13.1 |
| AACAACAAAAUCACUAGUCUUCCA [hsa-miR-3529-3p] | 0.722 | 44.1 | 14.9 |
| AACAAUAUCCUGGUGCUGAGUG [hsa-miR-338-5p] | -1.58 | 47.6 | -0.375 |
| AACACACCUAUUCAAGGAUUCA [hsa-miR-362-3p] | 30.7 | 47.7 | -7.86 |
| AACACACCUGGUUAACCUCUUU [hsa-miR-329] | 4.45 | 46.9 | -0.532 |
| AACACUGGCCUUGCUAUCCCCA [hsa-miR-6757-3p] | -35 | 52.1 | 30.1 |
| AACAGGUGACUGGUUAGACAA [hsa-miR-552] | 36.6 | 123 | -33.6 |
| AACAUAGAGGAAAUUCCACGU [hsa-miR-376c-3p] | 55.4 | 99.8 | -18.9 |
| AACAUCACAGCAAGUCUGUGCU [hsa-miR-499a-3p] | -38.3 | 49.3 | -7.15 |
| AACAUCACUGCAAGUCUUAACA [hsa-miR-499b-3p] | -7.16 | 77 | -24.7 |
| AACAUUCAACCUGUCGGUGAGU [hsa-miR-181c-5p] | 3.6 | 79 | 6.56 |
| AACAUUCAACGCUGUCGGUGAGU [hsa-miR-181a-5p] | 0.638 | 76.4 | 2.31 |

| Sequence | 5+ nucleoli phenotype percent effect (MCF10A [1]) [%] | percent viability (MCF10A [2]) [%] | one-nucleolus phenotype percent effect (MCF10A [3]) [%] |
| --- | --- | --- | --- |
| AACAUUCAUUGCUGUCGGUGGGU [hsa-miR-181b-5p] | 10.9 | 93.5 | 1.83 |
| AACAUUCAUUGUUGUCGGUGGGU [hsa-miR-181d] | 12.5 | 91.1 | -6.07 |
| AACCACUUUCUUUGCUCAUCCA [hsa-miR-1255b-2-3p] | -17.2 | 32.1 | 7.09 |
| AACCAGCACCCCAACUUUGGAC [hsa-miR-634] | -57.2 | 4.33 | -35.9 |
| AACCAUCGACCGUUGAGUGGAC [hsa-miR-181c-3p] | -21.2 | 71 | 16.6 |
| AACCCAGUGGGCUAUGGAAAUG [hsa-miR-4482-5p] | -41 | 24.6 | 59.8 |
| AACCCCUAAGGCAACUGGAUGG [hsa-miR-5195-5p] | 2.35 | 53.1 | -2.47 |
| AACCCGUAGAUCCGAACUUGUG [hsa-miR-100-5p] | -0.958 | 45.1 | 9.92 |
| AACCCGUAGAUCCGAUCUUGUG [hsa-miR-99a-5p] | 1.63 | 48.2 | 7.7 |
| AACCUUGGCCCCUCUCCCCAG [hsa-miR-6813-3p] | 67.7 | 75.9 | -35.3 |
| AACGCACUUCCCUUUAGAGUGU [hsa-miR-521] | 28.6 | 57.9 | -9.21 |
| AACGCCAUUAUCACACUAAAUA [hsa-miR-122-3p] | 35.4 | 131 | -17.4 |
| AACGGCAAUGACUUUUGUACCA [hsa-miR-548al] | -4.48 | 58.9 | -4.22 |
| AACGGGAAUGCAGGCUGUAUCU [hsa-miR-4681] | 46 | 30.6 | -21 |
| AACUAGCUCUGUGGAUCCUGAC [hsa-miR-4661-5p] | -18.4 | 13.9 | 21.8 |
| AACUAGUAAUGUUGGAUUAGGG [hsa-miR-3923] | -20.8 | 21.9 | 43.2 |
| AACUCACGAAGUAUACCGAAGU [hsa-miR-4798-3p] | 11.4 | 48.2 | -1.81 |
| AACUCCAAACACUCAAAACUCA [hsa-miR-3145-5p] | 43.6 | 119 | -24.6 |
| AACUCGUGUUCAAAGCCUUUAG [hsa-miR-4636] | 12.8 | 53.6 | 8.89 |
| AACUCUAGCCUGAGCAACAG [hsa-miR-5684] | -2.91 | 40.5 | 2.62 |

| Sequence | 5+ nucleoli phenotype percent effect (MCF10A [1]) [%] | percent viability (MCF10A [2]) [%] | one-nucleolus phenotype percent effect (MCF10A [3]) [%] |
| --- | --- | --- | --- |
| AACUCUGACCCCUUAGGUUGAU [hsa-miR-4714-5p] | -16.1 | 41.1 | -5.26 |
| AACUCUGUCUUCACUCAUGAGU [hsa-miR-3664-5p] | 6.12 | 60.5 | -2.78 |
| AACUGAACCAGGAGUGAGCUUCG [hsa-miR-4724-5p] | -1.37 | 77.9 | 6.7 |
| AACUGGAUCAAUUAUAGGAGUG [hsa-miR-1243] | 53.3 | 174 | -29.3 |
| AACUGGCCCUCAAAGUCCCGCU [hsa-miR-193b-3p] | -6.55 | 16.9 | 24.4 |
| AACUGGCCUACAAAGUCCCAGU [hsa-miR-193a-3p] | -15.2 | 21.9 | 29.5 |
| AACUGUUUGCAGAGGAAACUGA [hsa-miR-452-5p] | 28.4 | 103 | -22.3 |
| AAGAAGAGACUGAGUCAUCGAAU [hsa-miR-5197-3p] | 26.1 | 24.8 | -5.79 |
| AAGACGGGAGGAAAGAAGGGAG [hsa-miR-483-5p] | -31.8 | 51.5 | 19.1 |
| AAGACUGAGAGGAGGGA [hsa-miR-4499] | 3.14 | 123 | -14 |
| AAGAGAACUGAAAGUGGAGCCU [hsa-miR-3925-5p] | -8.02 | 49.5 | -13 |
| AAGAGAGGAGCAGUGGUGCUGUGG [hsa-miR-6856-5p] | -5.13 | 52.1 | 0.793 |
| AAGAGGAAGAAAUGGCUGGUUCUCAG [hsa-miR-3916] | -13.2 | 14 | -5.24 |
| AAGAUGUGGAAAAAUUGGAAUC [hsa-miR-576-3p] | -7.01 | 48 | 17.9 |
| AAGCAAUACUGUUACCUGAAAU [hsa-miR-3942-5p] | 13.9 | 36.6 | -6.02 |
| AAGCAGCAGUGGCAAGACUCCU [hsa-miR-6838-5p] | -35.6 | 24.7 | 31.1 |
| AAGCAUUCUUUCAUUGGUUGG [hsa-miR-1179] | 0.87 | 98.7 | 1.48 |
| AAGCCCUGUCUCCUCCCAUCU [hsa-miR-6779-3p] | -41.9 | 68.1 | 9.83 |
| AAGCCCUUACCCCAAAAAGCAU [hsa-miR-129-2-3p] | -31.7 | 64.7 | 24 |
